Assay results reported in FireProtDB.
Where a chain is given by its changes, count along the chain named. Where “and” joins values, the source holds several entries; their conditions need not be identical. Identical values can stand only once.

Details: whole UniProt chain shown
[1] = Homo sapiens, pH 8, Thermal, CD, Tris-HCl 10 mM
[2] = Hordeum vulgare, pH 6.3, 25 °C, GdnHCl, DSC, MES-NaOH 50 mM, reversible: yes
[3] = Hordeum vulgare, pH 6.3, 25 °C, GdnHCl, Fluorescence, Sodium phosphate 20 mM
[4] = Hordeum vulgare, pH 7, 25 °C, GdnHCl, CD, Sodium phosphate 10 mM, reversible: yes
[5] = Hordeum vulgare, pH 7, 30 °C, GdnHCl, Fluorescence, MOPS 50 mM
[6] = Hordeum vulgare, pH 7.4, 25 °C, GdnHCl, CD, Tris 50 mM
[7] = Homo sapiens, pH 7.8, Thermal, DSC, Potassium phosphate 2 mM, reversible: yes
[8] = Homo sapiens, pH 7.5, 25 °C, Urea, CD, HEPES 20 mM, NaCl 100 mM, reversible: no
[9] = Homo sapiens, pH 7.5, 25 °C, Urea, CD, Sodium phosphate 15 mM, NaCl 100 mM, reversible: yes
[10] = Homo sapiens, pH 7.5, 0 °C, GdnHCl, CD, Na2HPO4 5 mM, transition: 2, reversible: No
[11] = Homo sapiens, pH 8.1, Thermal, DSC, Tris-HCl 20 mM
[12] = Homo sapiens, pH 8, 25 °C, GdnHCl, CD, Tris-Hcl, transition: 2
[13] = Homo sapiens, pH 8, 25 °C, GdnHCl, fluorescence, Tris-Hcl, transition: 2

B1: Annexin A5 wild type, P08758 (protein)
chain: MAQVLRGTVTDFPGFDERADAETLRKAMKGLGTDEESILTLLTSRSNAQRQEISAAFKTLFGRDLLDDLKSELTGKFEKLIVALMKPSRLYDAYELKHALKGAGTNEKVLTEIIASRTPEELRAIKQVYEEEYGSSLEDDVVGDTSGYYQRMLVVLLQANRDPDAGIDEAQVEQDAQALFQAGELKWGTDEEKFITIFGTRSVSHLRKVFDKYMTISGFQIEETIDRETSGNLEQLLLAVVKSIRSIPAYLAETLYYAMKGAGTDDHTLIRVMVSRSEIDLFNIRKEFRKNFATSLYSMIKGDTSGDYKKALLLLCGEDD
Question: With B1 as the protein, how does the Tm [1] read?
Answer: 51.9 °C

Question: And the “unfolding enthalpy (van 't Hoff)” value [1]?
Answer: 693 kJ/mol

B2: wild type, Q40059 (protein)
chain: MSSMEKKPEGVNIGAGDRQNQKTEWPELVGKSVEEAKKVILQDKPAAQIIVLPVGTIVTMEYRIDRVRLFVDRLDNIAQVPRVG
Question: For B2, which Tm (Hordeum vulgare, pH 4.15, Thermal, CD, acetate 10 mM, reversible: no) is on record?
Answer: 74.3 °C

Question: And the denaturant m value [2]?
Answer: 1.76 kcal/mol/M

Question: And the “denaturant midpoint (higher = more stable)” value (“denaturant midpoint” for short) [2]?
Answer: 4.05 M

Question: What about the unfolding free energy [2] of the same protein?
Answer: 30 kJ/mol

Question: And the denaturant m value [3]?
Answer: 1.96 kcal/mol/M and 2.01 kcal/mol/M

Question: What about the unfolding free energy [3] of the same protein?
Answer: 31 kJ/mol and 30.4 kJ/mol and 30.2 kJ/mol

B3: Subtilisin-chymotrypsin inhibitor-2A wild type, P01053 (protein)
chain: B2 chain with M4V, I13T, Q19H, Q21L, A46E, R73K
Question: For B3, which unfolding free energy (Hordeum vulgare, pH 4.2, 50 °C, GdnHCl, Fluorescence, Sodium acetate 50 mM, reversible: yes) is on record?
Answer: 23 kJ/mol

Question: What about the unfolding free energy (Hordeum vulgare, pH 6.3, 17 °C, GdnHCl, Fluorescence, MES 10 mM, reversible: yes) of the same protein?
Answer: 31.3 kJ/mol

Question: And the unfolding free energy (Hordeum vulgare, pH 6.3, 21 °C, GdnHCl, Fluorescence, MES 10 mM, reversible: yes)?
Answer: 30.5 kJ/mol

Question: And the unfolding free energy (Hordeum vulgare, pH 6.3, 25 °C, GdnHCl, Fluorescence, MES 10 mM, reversible: yes)?
Answer: 29.5 kJ/mol

Question: What about the unfolding free energy (Hordeum vulgare, pH 6.3, 29 °C, GdnHCl, Fluorescence, MES 10 mM, reversible: yes) of the same protein?
Answer: 28.3 kJ/mol

Question: And the unfolding free energy (Hordeum vulgare, pH 6.3, 32 °C, GdnHCl, Fluorescence, MES 10 mM, reversible: yes)?
Answer: 27.3 kJ/mol

Question: And the denaturant m value [4]?
Answer: 1.77 kcal/mol/M

Question: And the “denaturant midpoint” value [4]?
Answer: 3.97 M

Question: And the unfolding free energy [4]?
Answer: 29.5 kJ/mol

Question: What about the denaturant m value [5] of the same protein?
Answer: 1.92 kcal/mol/M

Question: And the unfolding free energy [5]?
Answer: 29.5 kJ/mol

Question: And the denaturant m value [6]?
Answer: 1.82 kcal/mol/M

Question: And the “denaturant midpoint” value [6]?
Answer: 4.29 M

Question: And the unfolding free energy [6]?
Answer: 32.7 kJ/mol

B4: Superoxide dismutase [Mn], mitochondrial wild type, P04179 (protein)
chain: MLSRAVCGTSRQLAPVLGYLGSRQKHSLPDLPYDYGALEPHINAQIMQLHHSKHHAAYVNNLNVTEEKYQEALAKGDVTAQIALQPALKFNGGGHINHSIFWTNLSPNGGGEPKGELLEAIKRDFGSFDKFKEKLTAASVGVQGSGWGWLGFNKERGHLQIAACPNQDPLQGTTGLIPLLGIDVWEHAYYLQYKNVRPDYLKAIWNVINWENVTERYMACKK
Question: Which Tm [7] does the source give for B4 here?
Answer: 70 °C

Question: What about the “unfolding enthalpy (calorimetric)” value [7] of the same protein?
Answer: 594 kJ/mol

B5: Cyclin-dependent kinase inhibitor 2A wild type, P42771 (protein)
chain: MEPAAGSSMEPSADWLATAAARGRVEEVRALLEAGALPNAPNSYGRRPIQVMMMGSARVAELLLLHGAEPNCADPATLTRPVHDAAREGFLDTLVVLHRAGARLDVRDAWGRLPVDLAEELGHRDVARYLRAAAGGTRGSNHARIDAAEGPSDIPD
Question: For B5, which “denaturant midpoint” value [8] is on record?
Answer: 2.74 M

Question: What about the unfolding free energy [8] of the same protein?
Answer: 11.3 kJ/mol

Question: And the unfolding free energy (Homo sapiens, pH 7.5, 25 °C, Urea, CD, MOPS 10 mM, NaF 50 mM, reversible: Yes)?
Answer: 9.62 kJ/mol

Question: What about the denaturant m value [9] of the same protein?
Answer: 2 kcal/mol/M

Question: What about the “denaturant midpoint” value [9] of the same protein?
Answer: 1.9 M

Question: And the Tm (Homo sapiens, pH 7.5, Thermal, CD, HEPES 50 mM, reversible: no)?
Answer: 41.5 °C

B6: Cyclin-dependent kinase 4 inhibitor D wild type, P55273 (protein)
chain: MLLEEVRAGDRLSGAAARGDVQEVRRLLHRELVHPDALNRFGKTALQVMMFGSTAIALELLKQGASPNVQDTSGTSPVHDAARTGFLDTLKVLVEHGADVNVPDGTGALPIHLAVQEGHTAVVSFLAAESDLHRRDARGLTPLELALQRGAQDLVDILQGHMVAPL
Question: For B6, which “denaturant midpoint” value (Homo sapiens, pH 7.5, 15 °C, Urea, CD, Na-phospahate 20 mM, reversible: yes) is on record?
Answer: 2.9 M

Question: And the Tm (Homo sapiens, pH 7.5, Thermal, CD, sodium phosphate 20 mM, reversible: yes)?
Answer: 51.9 °C

B7: Apolipoprotein C-I wild type, P02654 (protein)
chain: MRLFLSLPVLVVVLSIVLEGPAPAQGTPDVSSALDKLKEFGNTLEDKARELISRIKQSELSAKMREWFSETFQKVKEKLKIDS
Question: What does the source list for B7?
Answer: denaturant m value [10]: 3.7 kcal/mol/M; denaturant midpoint (higher = more stable) [10]: 0.85 M; unfolding free energy [10]: 11.7 kJ/mol; unfolding free energy (Homo sapiens, pH 7.5, 25 °C, GdnHCl, CD, Na2HPO4 5 mM, transition: 2, reversible: No): 7.53 kJ/mol; Tm (Homo sapiens, pH 7.8, Thermal, CD, Sodium phosphate 5 mM, reversible: yes): 51 °C

B8: Cystatin-A wild type, P01040 (protein)
chain: MIPGGLSEAKPATPEIQEIVDKVKPQLEEKTNETYGKLEAVQYKTQVVAGTNYYIKVRAGDNKYMHLKVFKSLPGQNEDLVLTGYQVDKNKDDELTGF
Question: For B8, which Tm [11] is on record?
Answer: 94.5 °C

Question: What about the “heat capacity change of unfolding” value [11] of the same protein?
Answer: 1.5 kcal/mol/K

Question: And the “unfolding enthalpy (calorimetric)” value [11]?
Answer: 510 kJ/mol

B9: Sphingosine kinase 1 wild type, Q9NYA1 (protein)
chain: MDPAGGPRGVLPRPCRVLVLLNPRGGKGKALQLFRSHVQPLLAEAEISFTLMLTERRNHARELVRSEELGRWDALVVMSGDGLMHEVVNGLMERPDWETAIQKPLCSLPAGSGNALAASLNHYAGYEQVTNEDLLTNCTLLLCRRLLSPMNLLSLHTASGLRLFSVLSLAWGFIADVDLESEKYRRLGEMRFTLGTFLRLAALRTYRGRLAYLPVGRVGSKTPASPVVVQQGPVDAHLVPLEEPVPSHWTVVPDEDFVLVLALLHSHLGSEMFAAPMGRCAAGVMHLFYVRAGVSRAMLLRLFLAMEKGRHMEYECPYLVYVPVVAFRLEPKDGKGVFAVDGELMVSEAVQGQVHPNYFWMVSGCVEPPPSWKPQQMPPPEEPL
Question: For B9, which denaturant m value [12] is on record?
Answer: 0.42 kcal/mol/M

Question: And the “denaturant midpoint” value [12]?
Answer: 2.86 M

Question: What about the unfolding free energy [12] of the same protein?
Answer: 5.52 kJ/mol

Question: And the denaturant m value [13]?
Answer: 0.6 kcal/mol/M

Question: What about the “denaturant midpoint” value [13] of the same protein?
Answer: 2.94 M

Question: What about the unfolding free energy [13] of the same protein?
Answer: 7.32 kJ/mol
